What was measured:
HeLa Kyoto [1] = assay: solubility in G1/S (NP-40 vs SDS abundance) (log2 ratio); higher = more soluble; settings: cell cycle stage: G1/S
HeLa Kyoto [2] = assay: melting temperature (median over replicates), in situ; higher = more thermally stable
HeLa Kyoto [3] = assay: solubility change mitosis vs G1/S (difference of NP-40 vs SDS log2 ratios) (log2 ratio difference); higher = more soluble in mitosis
HeLa Kyoto [4] = assay: thermal stability score vs G1/S (z-score of summed log2 fold changes over temperatures); higher = more thermally stable than in G1/S
[5] = cell cycle stage: early G1 (4.5 h after nocodazole release)
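Wherever melting temperature (median over replicates), in situ is given: HeLa Kyoto cells synchronized by double thymidine or nocodazole block, proteins quantified by TMT10plex mass spectrometry, three independent biological replicates.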
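Wherever solubility change mitosis vs G1/S (difference of NP-40 vs SDS log2 ratios) is given: synchronized HeLa Kyoto cells (double thymidine block for G1/S, nocodazole release for mitosis), protein amounts in NP-40 versus SDS lysates quantified by mass spectrometry, three biological replicates.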
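Wherever solubility in G1/S (NP-40 vs SDS abundance) is given: HeLa Kyoto cells arrested at G1/S by double thymidine block, proteins quantified by TMT10plex mass spectrometry in mild NP-40 versus SDS extracts, three biological replicates.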
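Wherever thermal stability score vs G1/S (z-score of summed log2 fold changes over temperatures) is given: synchronized HeLa Kyoto cells, proteins quantified by TMT10plex mass spectrometry, three biological replicates, mitosis taken 0.5 h after nocodazole release, G1/S directly after double thymidine block.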

For “MLLLPSAADGRGTAITHALTSASTLCQVEPVGRWFEAFVKRRNRNASASFQELEDKKELSEESEDEELQLEEFPMLKTLDPKDWKNQDHYAVLGLGHVRYKATQRQIKAAHKAMVLKHHPDKRKAAGEPIKEGDNDYFTCITKAYEMLSDPVKRRAFNSVDPTFDNSVPSKSEAKDNFFEVFTPVFERNSRWSNKKNVPKLGDMNSSFEDVDIFYSFWYNFDSWREFSYLDEEEKEKAECRDERRWIEKQNRATRAQRKKEEMNRIRTLVDNAYSCDPRIKKFKEEEKAKKEAEKKAKAEAKRKEQEAKEKQRQAELEAARLAKEKEEEEVRQQALLAKKEKDIQKKAIKKERQKLRNSCKTWNHFSDNEAERVKMMEEVEKLCDRLELASLQCLNETLTSCTKEVGKAALEKQIEEINEQIRKEKEEAEARMRQASKNTEKSTGGGGNGSKNWSEDDLQLLIKAVNLFPAGTNSRWEVIANYMNIHSSSGVKRTAKDVIGKAKSLQKLDPHQKDDINKKAFDKFKKEHGVVPQADNATPSERFEGPYTDFTPWTTEEQKLLEQALKTYPVNTPERWEKIAEAVPGRTKKDCMKRYKELVEMVKAKKAAQEQVLNASRAKK [DNAJC2]”, the “solubility in G1/S (log2)” value (HeLa Kyoto [1]) was 0.0111, the melting temperature (HeLa Kyoto [2]; cell cycle stage: G1/S) was 48.6 °C and the melting temperature (HeLa Kyoto [2]; cell cycle stage: mitosis) was 48.7 °C. The “solubility change mitosis (log2)” value (HeLa Kyoto [3]) was -0.0365, the thermal stability score (HeLa Kyoto [4]; [5]) was 1.17 and the thermal stability score (HeLa Kyoto [4]; cell cycle stage: mitosis) was 1.39.
For “MLLPAPALRRALLSRPWTGAGLRWKHTSSLKVANEPVLAFTQGSPERDALQKALKDLKGRMEAIPCVVGDEEVWTSDVQYQVSPFNHGHKVAKFCYADKSLLNKAIEAALAARKEWDLKPIADRAQIFLKAADMLSGPRRAEILAKTMVGQGKTVIQAEIDAAAELIDFFRFNAKYAVELEGQQPISVPPSTNSTVYRGLEGFVAAISPFNFTAIGGNLAGAPALMGNVVLWKPSDTAMLASYAVYRILREAGLPPNIIQFVPADGPLFGDTVTSSEHLCGINFTGSVPTFKHLWKQVAQNLDRFHTFPRLAGECGGKNFHFVHRSADVESVVSGTLRSAFEYGGQKCSACSRLYVPHSLWPQIKGRLLEEHSRIKVGDPAEDFGTFFSAVIDAKSFARIKKWLEHARSSPSLTILAGGKCDDSVGYFVEPCIVESKDPQEPIMKEEIFGPVLSVYVYPDDKYKETLQLVDSTTSYGLTGAVFSQDKDVVQEATKVLRNAAGNFYINDKSTGSIVGQQPFGGARASGTNDKPGGPHYILRWTSPQVIKETHKPLGDWSYAYMQ [ALDH4A1]”, the “solubility in G1/S (log2)” value (HeLa Kyoto [1]) was 0.0698, the melting temperature (HeLa Kyoto [2]; cell cycle stage: G1/S) was 51.8 °C and the melting temperature (HeLa Kyoto [2]; cell cycle stage: mitosis) was 50.7 °C. The “solubility change mitosis (log2)” value (HeLa Kyoto [3]) was -0.0143, the thermal stability score (HeLa Kyoto [4]; [5]) was -0.222 and the thermal stability score (HeLa Kyoto [4]; cell cycle stage: mitosis) was -0.434.
With “MLLPNILLTGTPGVGKTTLGKELASKSGLKYINVGDLAREEQLYDGYDEEYDCPILDEDRVVDELDNQMREGGVIVDYHGCDFFPERWFHIVFVLRTDTNVLYERLETRGYNEKKLTDNIQCEIFQVLYEEATASYKEEIVHQLPSNKPEELENNVDQILKWIEQWIKDHNS [AK6]” the “solubility in G1/S (log2)” value (HeLa Kyoto [1]) was 0.193, the melting temperature (HeLa Kyoto [2]; cell cycle stage: G1/S) was 46.9 °C and the melting temperature (HeLa Kyoto [2]; cell cycle stage: mitosis) was 49.8 °C. The “solubility change mitosis (log2)” value (HeLa Kyoto [3]) was -0.0162, the thermal stability score (HeLa Kyoto [4]; [5]) was 1.22 and the thermal stability score (HeLa Kyoto [4]; cell cycle stage: mitosis) was 1.07.
With “MLLTVYCVRRDLSEVTFSLQVDADFELHNFRALCELESGIPAAESQIVYAERPLTDNHRSLASYGLKDGDVVILRQKENADPRPPVQFPNLPRIDFSSIAVPGTSSPRQRQPPGTQQSHSSPGEITSSPQGLDNPALLRDMLLANPHELSLLKERNPPLAEALLSGDLEKFSRVLVEQQQDRARREQERIRLFSADPFDLEAQAKIEEDIRQQNIEENMTIAMEEAPESFGQVVMLYINCKVNGHPVKAFVDSGAQMTIMSQACAERCNIMRLVDRRWAGIAKGVGTQKIIGRVHLAQVQIEGDFLPCSFSILEEQPMDMLLGLDMLKRHQCSIDLKKNVLVIGTTGSQTTFLPEGELPECARLAYGAGREDVRPEEIADQELAEALQKSAEDAERQKP [DDI2]” the “solubility in G1/S (log2)” value (HeLa Kyoto [1]) was 0.489, the melting temperature (HeLa Kyoto [2]; cell cycle stage: G1/S) was 52.8 °C and the melting temperature (HeLa Kyoto [2]; cell cycle stage: mitosis) was 53 °C. The “solubility change mitosis (log2)” value (HeLa Kyoto [3]) was -0.11, the thermal stability score (HeLa Kyoto [4]; [5]) was -0.385 and the thermal stability score (HeLa Kyoto [4]; cell cycle stage: mitosis) was 0.166.
With “MLNMWKVRELVDKATNVVMNYSEIESKVREATNDDPWGPSGQLMGEIAKATFMYEQFPELMNMLWSRMLKDNKKNWRRVYKSLLLLAYLIRNGSERVVTSAREHIYDLRSLENYHFVDEHGKDQGINIRQKVKELVEFAQDDDRLREERKKAKKNKDKYVGVSSDSVGGFRYSERYDPEPKSKWDEEWDKNKSAFPFSDKLGELSDKIGSTIDDTISKFRRKDREDSPERCSDSDEEKKARRGRSPKGEFKDEEETVTTKHIHITQATETTTTRHKRTANPSKTIDLGAAAHYTGDKASPDQNASTHTPQSSVKTSVPSSKSSGDLVDLFDGTSQSTGGSADLFGGFADFGSAAASGSFPSQVTATSGNGDFGDWSAFNQAPSGPVASSGEFFGSASQPAVELVSGSQSALGPPPAASNSSDLFDLMGSSQATMTSSQSMNFSMMSTNTVGLGLPMSRSQNTDMVQKSVSKTLPSTWSDPSVNISLDNLLPGMQPSKPQQPSLNTMIQQQNMQQPMNVMTQSFGAVNLSSPSNMLPVRPQTNALIGGPMPMSMPNVMTGTMGMAPLGNTPMMNQSMMGMNMNIGMSAAGMGLTGTMGMGMPNIAMTSGTVQPKQDAFANFANFSK [CLINT1]” the “solubility in G1/S (log2)” value (HeLa Kyoto [1]) was -0.186, the melting temperature (HeLa Kyoto [2]; cell cycle stage: G1/S) was 51.6 °C and the melting temperature (HeLa Kyoto [2]; cell cycle stage: mitosis) was 51.9 °C. For the same sequence, the “solubility change mitosis (log2)” value (HeLa Kyoto [3]) was -0.108, the thermal stability score (HeLa Kyoto [4]; [5]) was 1.76 and the thermal stability score (HeLa Kyoto [4]; cell cycle stage: mitosis) was 3.07.
